B1: TPR t1 (parent)
chain: GACCAAUCUGCCCUCAGAGCUCGAGAACAUCUUCGGAUGCAGAGGAGGCAGGCUUCGGUGGCGCGAUAGCGCCAACGUCCUCAACCUCCAAUGCAUCCCACCACAUGAUGAUGCCUGAAGAGCCUUGGUUUUUUG

Variants of: B1
Experiment: polymerase ribozyme fitness, log enrichment relative to wild type (log ratio); higher = more active; in vitro selection for triplet polymerase activity
Method in brief: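 A single round of triplicate in vitro selection, including frozen incubation at −7 °C, was applied to PCR-built, transcribed mutant libraries of each subunit of a heterodimeric triplet polymerase ribozyme. Illumina sequencing of input and output libraries retained genotypes with ≥10 input reads and ≥1 read per output. Fitness is the base-2 logarithm of genotype enrichment divided by wild-type enrichment, from inverse-variance-weighted replicate averages.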

Variant	polymerase ribozyme fitness (log ratio)
GACCAAUCUGCCCUCAGAGCUCGAGAACAUCUUCUGAUGCAGAGGAGGCAGGCUUCGGUGGCGCGAUAGUGUCAACGUCCUCAACCUCCAAUGCAUCCCACCACAUGAUGAUGCCUGAACAGCCUUGGUUUUUUG [G35U C70U C72U G120C]	-6.33
GACCAAUCUGCCCUCAGAGCUCGAGAACAUCUUCUGAUGCAGAGGAGGCAGGCUUCGGUGGCGCGAUAGUGCAAACGUCCUCAACCUCCAAUGCAUCCCACCACAUGAUGAUGCCUGAAGAGCCUUGGUUUUUUG [G35U C70U C73A]	-7.04
GACCAAUCUGCCCUCAGAGCUCGAGAACAUCUUCUGAUGCAGAGGAGGCAGGCUUCGGUGGCGCGAUAGCGACAACGUCCUCAACCUCCAAUGCAUCCCACCACAUGAUGAUGCCUGAAGAGCCUUGGUUUUUUG [G35U C72A]	-5.07
GACCAAUCUGCCCUCAGAGCUCGAGAACAUCUUCUGAUGCAGAGGAGGCAGGCUUCGGUGGCGCGAUAGCGCCAACGUCCUCAACCUCCAAUGCAUCCCACCACAUGAUGAUGCCUGAAGAGACUUGGUUUUUUG [G35U C123A]	-3.61
GACCAAUCUGCCCUCAGAGCUCGAGAACAUCUUCUGAUGCAGAGGAGGCAGGCUUCGGUGGCGCGAUAGCGCCAACGUCCUCAACCUCCAAUGCAUCCCACCACAUGAUGAUGCCUGAAGAGUCUUGGUUUUUUG [G35U C123U]	-2.85
GACCAAUCUGCCCUCAGAGCUCGAGAACAUCUUCUGAUGCAGAGGAAGCAGGCUUCGGUGGCGCGAUAGCGCCAACGUCCUCAACCUCCAAUGCAUCCCACCACAUGAUGAUGCCUGAAGAGCCUUGGUUUUUUG [G35U G47A]	-5.64
GACCAAUCUGCCCUCAGAGCUCGAGAACAUCUUCUGAUGCAGAGGAGGCAGGCUUCGGUGACGCGAUAGCGCCAACGUCCUCAACCUCCAAUGCAUCGCACCACAUCAUGAUGCAUGAAAAGCCUUGGUUUUUUG [G35U G61A C98G G107C C115A G120A]	-7.51
GACCAAUCUGCCCUCAGAGCUCGAGAACAUCUUCUGAUGCAGAGGAGGCAGGCUUCGGUGGCACGAGAGCGCCAACGUCCUCAACCUACAAUGCAUCCCACCACAUGAUGAUGCCUGAAGAGCAUUCGUUUAUUG [G35U G63A U67G C88A C124A G127C U132A]	-7.2
GACCAAUCUGCCCUCAGAGCUCGAGAACAUCUUCUGAUGCAGAGGAGGCAGGCUUCGGUGGCUCGAUAGCGCCAACGUCCUCAACCUCCAAUGCAUCCCAACACAUGAUGAUGCUUGAAGAGCCUUGGUUUUUUG [G35U G63U C101A C115U]	-5.79
GACCAAUCUGCCCUCAGAGCUCGAGAACAUCUUCUGAUGCAGAGGAGGCAGGCUUCGGUGGCGCGAUAACGCCAACGUCCUCAACCUCCAAUGCAUCCCACCACAUGAUGAUGCCUGAAGAGCCUUGGUUUUUUG [G35U G69A]	-7.16
GACCAAUCUGCCCUCAGAGCUCGAGAACAUCUUCUGAUGCAGAGGAGGCAGGCUUCGGUGGCGCGAUAUCGCCAACGUCCUCAACCUCCAAUGCAUCCCACCACAUGAUGAUGCCUGAAGAGAAUUGGUUUUUUG [G35U G69U C123A C124A]	-1
GACCAAUCUGCCCUCAGAGCUCGAGAACAUCUUCUGAUGCAGAGGAGGCAGGCUUCGGUGGCGCGAUAGCUCCAACGUCCUCAACCUCCAAUGCAUCCCACCACAUGAUGAUGCCUGAAGAGCCUUGGUUUUUUG [G35U G71U]	-5.03
GACCAAUCUGCCCUCAGAGCUCGAGAACAUCUUCUGAUGCAGAGGAGGCAGGCUUCGGUGGCGCGAUAGCGCCAACCUCCUCAACCUCCAAUGCAUCCCACCACAUGAUGAUGCCUGAAGAGGCUUGGUUUUUUG [G35U G77C C123G]	-5.04
GACCAAUCUGCCCUCAGAGCUCGAGAACAUCUUCUGAUGCAGAGGAGGCAGGCUUCGGUGGCGCGAUAGCGCCAACGUCCUCAACCUCCAAUGCAUCCCACCACAUGAUGAUACCUGAAGAGCCUUGGUUUUUUG [G35U G113A]	-6.27
GACCAAUCUGCCCUCAGAGCUCGAGAACAUCUUCUGAUGCAGAGGAGGCAGGCUUCGGUGGCGCGACAGCGCCAACGUCCUCAACCUCCAAUGCAUCCCACCACAUGAAGAUGCUUGAAGAGCCUUGGUUUUUUG [G35U U67C U109A C115U]	-5.63
GACCAAUCUGCCCUCAGAGCUCGAGAACAUCUUCUGAUGCAGAGGAGGCAGGCUUCGGUGGCGCGAUAGCGCCAACGUCCUCAACCUCCAAUGCAUCCCACCACAUGAUGAAGCCUGAAGAGCCUUGGUUUUUUG [G35U U112A]	-2.86
GACCAAUCUGCCCUCAGAGCUCGAGAACAUCUUCGAAUGCAGAGGAGGCAGGCUUCGGUGGCGCGAUAGCGCCAACGUCCUCAACCUCCAAUGCAUCCCACCACAUGAUGAUGCCUGAAGAGCCUUGGUUUUUUG [G36A]	-0.858
GACCAAUCUGCCCUCAGAGCUCGAGAACAUCUUCGAAUGCAGCGGAGGCAGGCUUCGGUGGCGCGAUAGCGCCAACGUCCUCAACCUCCAAUGCAUCCCACCACAUGAUGAUGCCUGAAGAGCCUUGGUUUUUUG [G36A A43C]	-3.56
GACCAAUCUGCCCUCAGAGCUCGAGAACAUCUUCGAAUGCAGCGGAGGCAGGCUUCGGUGGCGCGAUAGCGCGAACGUCCUCAACCUCCAAUGCAUCCCACCACAUGAUGAUGCCUGAAGAGCCUUGGUUUUUUG [G36A A43C C73G]	-4.51
GACCAAUCUGCCCUCAGAGCUCGAGAACAUCUUCGAAUGCAGAGGAGGCAGGCUUCGGUGGCGCGCUAGCGCCAACGUCCUCAACCUCCAAUGCAUCCCACCACAUGAUGAUGCCUGAAUAGCCUUGGUUUUUUG [G36A A66C G120U]	-1.74
GACCAAUCUGCCCUCAGAGCUCGAGAACAUCUUCGAAUGCAGAGGAGGCAGGCUUCGGUGGCGCGAUAGCGCCAACGUCCUCACCCUCCAAUGCAUCCCACCACAUGAUGAUGCCUAAAGAGCCUUGGUUUUUUG [G36A A84C G117A]	-2.24

Variant	polymerase ribozyme fitness (log ratio)
GACCAAUCUGCCCUCAGAGCUCGAGAACAUCUUCGAAUGCAGAGGAGGCAGGCUUCGGUGGCGCGAUAGCGCCAACGUCCUCAACCUCCAAUGCAUCCCACCACAUGAUGAUGCCUGAAGUGCCUUGAUUUUUUG [G36A A121U G128A]	0.119
GACCAAUCUGCCCUCAGAGCUCGAGAACAUCUUCGAAUGCAGAGGAGGAAGGCUUCGGUAGCGCGAUAGCGCCAACGUCCUCAACCUCCAAUGCAUCCCACCACAUGAUGAUGCCUGGAGAGCCUUGGUUUUUUG [G36A C49A G60A A118G]	-1.7
GACCAAUCUGCCCUCAGAGCUCGAGAACAUCUUCGAAUGCAGAGGAGGAAGGCUUCGGUGGCGCGAUAGCGCCAACGUCCUCAACCUCCAAUGCAUCCCACCACAUGAUCAUGCCUGAAGAGCCUUGGUUUUUUG [G36A C49A G110C]	-5.65
GACCAAUCUGCCCUCAGAGCUCGAGAACAUCUUCGAAUGCAGAGGAGGCAGGAGUCGGUGGCGCGAUAGCGCCAACGUCCUCAACCUCCAAUGCAUCCCACCACAUGAUGAUGCCUGAACAGCCUUGGUUUUUUG [G36A C53A U54G G120C]	0.74
GACCAAUCUGCCCUCAGAGCUCGAGAACAUCUUCGAAUGCAGAGGAGGCAGGCUUAGGUGGCGCGAUAGCGCCAACGUCCUCAACCUCCAAUGCAUCCCACCACAUGAUGAUGCCUGAAGAGCCUUGGUUUUUUG [G36A C56A]	-1.03
GACCAAUCUGCCCUCAGAGCUCGAGAACAUCUUCGAAUGCAGAGGAGGCAGGCUUCGGUGGCGUGAUAGCGACAACGUCCUCAACCUCCAAUGCAUCCCACCACAAGAUGAUGCCUGAAGAGCCUUGGUUUUUUG [G36A C64U C72A U106A]	-0.401
GACCAAUCUGCCCUCAGAGCUCGAGAACAUCUUCGAAUGCAGAGGAGGCAGGCUUCGGUGGCGCGAUAGUGCCAACGUCCUCAACCUCCAAUGCAUCCCACCACAUGAUGAUGCCUGAAGAGCCUUGGUUUUUUG [G36A C70U]	-1.06
GACCAAUCUGCCCUCAGAGCUCGAGAACAUCUUCGAAUGCAGAGGAGGCAGGCUUCGGUGGCGCGAUAGCGCGAACGUCCUCAACCUCCAAUGCAUCCCAACACACGAUGAUGCCUGAAGAGCCUUGGUUUUUUG [G36A C73G C101A U106C]	-3.26
GACCAAUCUGCCCUCAGAGCUCGAGAACAUCUUCGAAUGCAGAGGAGGCAGGCUUCGGUGGCGCGAUAGCGCCAACGUCCUGAACCUCCAAUGCAUCCCACCACAUGAUGAUGCCUGAAGAGUCUUGGUUUUUUG [G36A C82G C123U]	-0.368
GACCAAUCUGCCCUCAGAGCUCGAGAACAUCUUCGAAUGCAGAGGAGGCAGGCUUCGGUGGCGCGAUAGCGCCAACGUCCUCAACCUACAAUGCAUCCCACCACAUGAUGAUGCCUGAAGAGCCUUGGUUUUUUG [G36A C88A]	-1.76
GACCAAUCUGCCCUCAGAGCUCGAGAACAUCUUCGAAUGCAGAGGAGGCAGGCUUCGGUGGCGCGAUAGCGCCAACGUCCUCAACCUGCAAUGCAUCCCACCACAUGAUGAUGCCUGAAGAGCCUUGGUUUUUUG [G36A C88G]	-2.65
GACCAAUCUGCCCUCAGAGCUCGAGAACAUCUUCGAAUGCAGAGGAGGCAGGCUUCGGUGGCGCGAUAGCGCCAACGUCCUCAACCUCCAAUGCAUGCCACCACAUGAUGAGGCUUGAAGAGCCUUGGUUUUUUG [G36A C97G U112G C115U]	-5.56
GACCAAUCUGCCCUCAGAGCUCGAGAACAUCUUCGAAUGCAGAGGAGGCAGGCUUCGGUGGCGCGAUAGCGCCAACGUCCUCAACCUCCAAUGCAUUCCACCACAUGAUGAUGCCUGAAGAGCCUUGGUUUUUUG [G36A C97U]	-0.157
GACCAAUCUGCCCUCAGAGCUCGAGAACAUCUUCGAAUGCAGAGGAGGCAGGCUUCGGUGGCGCGAUAGCGCCAACGUCCUCAACCUCCAAUGCAUCUCACCACAUGAUGAUGCCUGAAGAGCCUUGGUUUUUUG [G36A C98U]	-3.49
GACCAAUCUGCCCUCAGAGCUCGAGAACAUCUUCGAAUGCAGAGGAGGCAGGCUUCGGUGGCGCGAUAGCGCCAACGUCCUCAACCUCCAAUGCAUCCCACCACAUGAUGAUGCCUGAAGAGCUUUGGUUUUUUG [G36A C124U]	0.816
GACCAAUCUGCCCUCAGAGCUCGAGAACAUCUUCGAAUGCAAAGGAGGCAGGCUUCGGUGGCGCGAUAGUGUCAACGUCCUCAACCUCCAAUGCAUCCCACCACAUGAUGAUGCCUGAAGAGCCUUGGUUUUUUG [G36A G42A C70U C72U]	-4.5
GACCAAUCUGCCCUCAGAGCUCGAGAACAUCUUCGAAUGCAAAGGAGGCAGGCUUCGGUGGCGCGAUAGCGUCAACGUCCUCAACCUCCAAUGCAUCCCACCACAUGAUGAUGCCUGAAGAGCCUUGGUUUUUUG [G36A G42A C72U]	-4.34
GACCAAUCUGCCCUCAGAGCUCGAGAACAUCUUCGAAUGCAGAAGAGGCAGGCUUCGGUGGCGCGAUAGCGCCAACUUCCUCAUCCUCCAAUGCAUCCCACCACAUGAUGAUGCCUGAAGAGCCUUGGUUUUUUG [G36A G44A G77U A84U]	-2.98
GACCAAUCUGCCCUCAGAGCUCGAGAACAUCUUCGAAUGCAGAGGAGUCAGGCUUCGGUGGCGCGAUAGCGCCAACGUCCUCAGCCUCCAAUGCAUCCCACCACAUGAUGAUGCCUGAAGAGCCUUGGUUUUUUG [G36A G48U A84G]	-2.02
GACCAAUCUGCCCUCAGAGCUCGAGAACAUCUUCGAAUGCAGAGGAGUCAGGCUUCGGUGGCUCGAUAGCGCCAACGUGCUCAACCUCCAAUGCAUCCCACCACAUGAUGAUGCCUGAAGAGCCUUGGUUUUUUG [G36A G48U G63U C79G]	-5.18
GACCAAUCUGCCCUCAGAGCUCGAGAACAUCUUCGAAUGCAGAGGAGGCAGCCUUCGGUGGCGCGAUAGCGCCAACGUCCUCAACCUCCAAUGCGUCCCACCACAUGAUGAUACCUGAAGAGCCUUGGUUUUUUG [G36A G52C A95G G113A]	-3.73

— the RNAGym collection of RNA variant scans (doi:10.1073/pnas.2313332121)
